Test system: MS2 coat protein
Assay: apparent KD of MS2 coat protein; designed switch direction (-1 OFF switch, 1 ON switch): -1; higher = weaker reporter binding
In short: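 For each design, the apparent KD is the median over clusters of curves fitted to normalised cluster fluorescence. Clusters held RNA switches with common flanks, transcribed on Illumina chips by stalled E. coli RNA polymerase. These were titrated with SNAP-549-labelled MS2 coat protein, doubling from 0.7 or 1.5 nM to 3 µM, without input, with 200 uM small-molecule ligand, or with an oligonucleotide input.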

[1] = input ligand: microRNA oligo, concentration not stated
[2] = Eterna round: R95, input ligand: FMN 200 uM
[3] = Eterna round: R95, input ligand: microRNA oligo, concentration not stated
[4] = Eterna round: R95, input ligand: none

Row | Sequence | apparent KD of MS2 coat protein (input ligand: FMN 200 uM) [nM] | apparent KD of MS2 coat protein [1] [nM] | apparent KD of MS2 coat protein (input ligand: none) [nM] | apparent KD of MS2 coat protein [2] [nM] | apparent KD of MS2 coat protein [3] [nM] | apparent KD of MS2 coat protein [4] [nM]
1 | CUGCUCCGUGUAGGAUAUGCAUACUCCCAUUAUGCAGAAGGACAUGAGGAUCACCCAUGUAUGUUAUUAUCAUGUGUUGCGUAC [Design 13] (Eterna round: R96, puzzle: Exclusion NG 1) | 250 | 29.5 | 38.5 |  |  | 
2 | UUUUUCGAACAAGCUUCGUACAUGAGGAUCACCCAUGUUUUUAGUUUUGUGUUGGUCAGUAUGGAAGUUCGUCUUAU [JR_SV3TOV1_Sub088] (puzzle: Sensor v3, turn-off variant 1) |  |  |  | 239 | 356 | 288
3 | AUGUCGGCAGGAUAUACAUGAGGAUCACCCAUGUAAAUUUUUCGUUUAACUUGAAUGUGUAGAAGGGCCAUGUA [Ex3 #69] (Eterna round: R97, puzzle: Exclusion 3) | 29.1 |  | 28.9 |  |  | 
4 | UAACAAAUGGUCAGGAUAUCACUCCCGGCCCAGAGUGAGAAGGGACAUGAGGAUCACCCAUGUAUGAUUCUCAC [jl-ex4-4.54 ViennaUCT mod] (Eterna round: R97, puzzle: Brourd's mod of Exclusion 4) | 19.7 |  | 15.1 |  |  | 
5 | GCAGCAUAGUUUACUAACUGUUACAUGAGGAUCACCCAUGUUUAGGAUAUGGUCUGGAUUACAGGCCAGAAGGAAACAAGCUGC [Eli exng3 - 033] (Eterna round: R96, puzzle: Exclusion NG 3) | 12.8 | 9.51 | 12.4 |  |  | 
6 | CCGGUUGGCGCAGGAUAUACAUGAGGAUCACCCAUGUUCAUGAGGAUCACUCAUGAGUUUUUGUUGUAGAAGGGUGGCCCGGCC (Eterna round: R96, puzzle: Exclusion NG 2) | 1170 | 605 | 933 |  |  | 
7 | AUUAGUAAUAAGGAUAUCACUAGCUUCGGCUAGUGAGAAGGUAUUACAUGAGGAUCACCCAUGUGAUUAAUUAA [E6/5-A1] (Eterna round: R97, puzzle: Exclusion 6) | 446 |  | 75.3 |  |  | 
8 | CUGAGCAGACGGAGAUCCAACAUGAGGAUCACCCAUGUCUCAUAAGCUUUUUGCUCAUCUUAUUGUACCUUGGUGCU [JL ViennaUCT Edcesobi mod 3] (puzzle: Sensor v3, turn-off variant 1) |  |  |  | 275 | 14.4 | 323
9 | UUUUAGCAAGCGAGUAUUAACAUGAGGAUCACCCAUGUGCAUCCAGUAUUACUUUUAGAUCUUGCUCGUCUUAUAUA [JR_STOV1_v2_Sub083] (Eterna round: R97, puzzle: Sensor, turn-off variant 1) | 339 |  | 381 |  |  | 
10 | UUGUUGUAUGUAGGAUAUGCAUAUUAUUAUUAUGCAGAAGGACAUGAGGAUCACCCAUGUAUGUUAUUAUUAUAUGUUAUGUGU [Title] (Eterna round: R96, puzzle: Exclusion NG 1) |  | 32 |  |  |  | 
11 | UGAUCUAGCGGAGGAUAUACAUGAGGAUCACCCAUGUAGUUGUCUGUACCGUAGUGCAGACUUGUGUAGAAGGCCGCUAGAUCU [JL ENG2 3.62] (Eterna round: R96, puzzle: Exclusion NG 2) | 25.9 | 9.62 | 14.3 |  |  | 
12 | UGCAGACGAGGAUAUAAAUUUGAUAACAUGAGGAUCACCCAUGUGAUCGAUAGAUCAAAUUUAGAAGGCGUCUGCA [E5/7-A2] (Eterna round: R97, puzzle: Exclusion 5) | 369 |  | 717 |  |  | 
13 | CCAGUGUAAGGAUAUCCGUUGCCGGAUAGAUGAUUAACAGCGGAGAAGGUACAUGAGGAUCACCCAUGUGUCCA [Eternabot (L1) Solution 8] (Eterna round: R97, puzzle: Exclusion 4) | 30.9 |  | 20.9 |  |  | 
14 | AAAUCACAUGAGGAUCACCCAUGUCAGGAUAUCGACUGAACAGCUUCGGCUGUUCAGUCGAGAAGGGACAAUUA [Brourdxlusion 1 - Jieux - Exclusion 1] (Eterna round: R97, puzzle: Exclusion 1) | 133 |  | 43.2 |  |  | 
15 | GUGAAGGUAGGAUAUACGAUAAUAUAGGGUAGAUAUAUAACACAUGAGGAUCACCCAUGUAGAAGGACCAAGUG [Mat - Exclusion 2 - Mod of my Tesla design - D61] (puzzle: Exclusion 2) |  |  |  |  | 46 | 
16 | ACUCACUCGCGAGGAUAUGGACAAAUAUAAACGCUAGAAGGCGCGACAUGAGGAUCACCCAUGUACUCACUCACUCACUCACAU [my 1st design ever] (Eterna round: R96, puzzle: Exclusion NG 1) | 62.6 | 27.5 | 41.9 |  |  | 
17 | GUCAUCACACAUGGGAUCAACAUGAGGAUCACCCAUGUUGCCAAGUUGUUUGCACGUCUUAUCAUACGUUUUUCGAG [Mod-Jxh] (Eterna round: R97, puzzle: Sensor, turn-off variant 1) | 22.9 |  | 23.2 |  |  | 
18 | GGCACACAUGUAGGAUAUCUGCACGUGUAGUGCAGAGAAGGACAUGAGGAUCACCCAUGUAAUUAAGAUCAAUUAUUAAGUGCC [ENG1/3-A3] (Eterna round: R96, puzzle: Exclusion NG 1) | 481 | 48.6 | 58.9 |  |  | 
19 | GCAGGUUAAGUCAGGAUAUACCUAUGGAUACAUAGGUAGAAGGGACAUGAGGAUCACCCAUGUGCCUCACCUGC [Fiskers BMX 4 - 19] (puzzle: Brourd's mod of Exclusion 4) |  |  |  |  | 16.8 | 
20 | GUCACAUGGGUGUAGAAUCACAUGAGGAUCACCCAUGUGACUAACAAGCUUUUUGCUCGUCUUAUGUCUAUGUGAAA [Stov1/17-A1] (Eterna round: R97, puzzle: Sensor, turn-off variant 1) | 47.4 |  | 40.5 |  |  | 
21 | AUAAUUAAUCGAGGAUAUCAGCACGUUUAGUGCUGAGAAGGCGACAUGAGGAUCACCCAUGUGAUCAAUUAAUAUUAAUAUUAU [ENG1/11-C2] (Eterna round: R96, puzzle: Exclusion NG 1) | 898 | 230 | 369 |  |  | 
22 | GCCGGAUUUGUGAGGAUAUGCCUAUGGAUACAUAGGCAGAAGGCACAUGAGGAUCACCCAUGUACCUCACCGGC [JL-BMX4-4.23 Eli mod] (Eterna round: R97, puzzle: Brourd's mod of Exclusion 4) | 141 |  | 21.4 |  |  | 
23 | UUAUUAUAUGUAGGAUAUGCAUAUUAUUAUUGUGCAGAAGGACAUGAGGAUCACCCAUGUAUAUUAUUAUUAUAUAUUAUAUAU [Title] (Eterna round: R96, puzzle: Exclusion NG 1) |  | 26.5 |  |  |  | 
24 | GGUGUACUAGUCAGGAUAUGAUUAAUACCAAAGAAUCAGAAGGGACAUGAGGAUCACCCAUGUAAAGAAGGAGA [BmEX4 A.23] (Eterna round: R97, puzzle: Brourd's mod of Exclusion 4) | 158 |  | 32.5 |  |  | 
25 | AGUUGGCGAGGAUAUACAUGAGGAUCACCCAUGUGAAGAAGAAGAGUGAGGAAGAAAAGUAGAAGGCGCUGACA [Mat - Exclusion 3 - Mod of Salish D38] (puzzle: Exclusion 3) |  |  |  | 87.9 | 84 | 50.7

From the supplement of paper PMC9170038
